Measured values: PMC8519570 (2021)

Target: DENV2 sE WT (soluble envelope protein E of dengue virus 2, wild type) (dengue virus 2 (strain 16681))
Assay: BLI

B1: EDE1 C10 quaternary epitope antibody (antibody, V domains shown)
VH: EVQLVESGAEVKKPGASVKVSCKASGYTFTSYAMHWVRQAPGQRLEWMGWINAGNGNTKYSQKFQDRVTITRDTSASTAYMELSSLRSEDTAIYYCARDKVDDYGDYWFPTLWYFDYWGQGTLVTVSS
VL: QSALTQPASVSGSPGQSITISCTGTSSDVGGFNYVSWFQQHPGKAPKLMLYDVTSRPSGVSSRFSGSKSGNTASLTISGLQAEDEADYYCSSHTSRGTWVFGGGTKLTVL
For B1, which Kd is on record?
The Kd was > 1000 nM.
